Reference: patent US20200138970A1 (Bayer, published 2020)
Positions count from the first letter of the chain named.

B1: TPP-6515 (antibody, human IgG1, lambda, V domains shown)
VH: EVQLLESGGGLVQPGGSLRLSCAASGFTFSSYGMHWVRQVPGKGLEWVSAISGSGGTTYYADSVKGRFTISRDNSKNTLYLQMNSLRAEDTAVYYCARGGYHFLFDYWGQGTLVTVSS
VL: QSVLTQPPSASGTPGQRVTISCSGSSSNIGSNTVNWYQQLPGTAPKLLIYRNDQRLLGVPDRFSGSKSGTSASLAISGLRSEDEADYYCQSYDSSLSGWVFGGGTKLTVLG
B2: TPP-6501 (antibody, human IgG1, lambda, V domains shown)
VH: B1 VH with V40A, T57S, G100S, Y101N, H102Y, F103L, L104G, F105M, Y107V
VL: QSVLTQPPSASGTPGQRVTISCSGSSSNIGRNIVNWYQQLPGTAPKLLIYRSNQRPSGVPDRFSGSKSGTSASLAISGLRSEDEADYYCQTWGTGWVFGGGTKLTVLG
B3: TPP-6499 (antibody, human IgG1, lambda, V domains shown)
VH: EVQLLESGGGLVQPGGSLRLSCAASGFTFRDFYMNWIRQAPGKGLEWVSSISASGKYTYYADSVKGRFTISRDNSKNTLYLQMNSLRAEDTAVYYCAREWGYCTNDVCRNWFDPWGQGTLVTVSS
VL: QSVLTQPPSASGTPGQRVTISCSGGYSNVGGNNVNWYQQLPGTAPKLLIYGNSNRPSGVPDRFSGSKSGTSASLAISGLRSEDEADYYCQSYDSSLSGSVFGGGTKLTVLG

Tests used:
[1] = target: T1, human B7H3 on cancer cell lines (human, UniProt Q5ZPR3 29-534); test: cell-based or functional assay
T1 sequence (looked up): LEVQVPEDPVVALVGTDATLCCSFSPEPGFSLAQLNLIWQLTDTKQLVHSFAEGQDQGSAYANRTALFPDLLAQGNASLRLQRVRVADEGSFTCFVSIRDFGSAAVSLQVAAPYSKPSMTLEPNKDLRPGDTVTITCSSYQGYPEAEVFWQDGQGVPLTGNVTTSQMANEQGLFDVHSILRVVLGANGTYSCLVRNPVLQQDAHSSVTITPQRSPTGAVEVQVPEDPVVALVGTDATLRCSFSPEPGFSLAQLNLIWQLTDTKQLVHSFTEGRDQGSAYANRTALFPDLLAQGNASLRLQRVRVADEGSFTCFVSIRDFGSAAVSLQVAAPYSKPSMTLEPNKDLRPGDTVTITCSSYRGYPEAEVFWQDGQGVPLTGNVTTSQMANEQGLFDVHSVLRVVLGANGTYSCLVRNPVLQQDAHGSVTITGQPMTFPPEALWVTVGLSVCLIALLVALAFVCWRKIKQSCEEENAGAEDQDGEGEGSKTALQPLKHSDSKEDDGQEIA

[2] = target: T2, human B7H2 (RnDSystems, 8206-B7) (human, UniProt O75144 19-258, limits assumed); test: ELISA, IgG captured on anti-human IgG Fc, antigen 37 ng/ml, anti-His HRP detection
T2 construct: Bought protein; His tag implied by anti-His detection
T2 sequence (looked up): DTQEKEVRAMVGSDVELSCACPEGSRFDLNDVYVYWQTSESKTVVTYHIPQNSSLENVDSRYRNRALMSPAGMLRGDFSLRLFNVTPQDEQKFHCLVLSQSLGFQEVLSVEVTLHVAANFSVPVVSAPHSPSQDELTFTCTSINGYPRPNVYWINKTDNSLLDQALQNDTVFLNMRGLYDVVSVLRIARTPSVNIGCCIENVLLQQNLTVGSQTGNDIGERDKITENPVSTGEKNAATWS
Experimental: (§1) Binding of the antibodies to human B7H3 and to human B7H2 and B7H4 was characterized using ELISAs. […] After washing once with PSB, 0.05% Tween, the plate was blocked with 100% Smart Block (Candor) for one hour at 37° C. The antibody to be tested was then attached to the plate (2 μg/ml IgG in PBS, 0.05% Tween, 10% Smart Block; 1 hour, room temperature). […] After washing three times, the plate was incubated with Amplex Red for 30 minutes and then read.

[3] = target: T3, human B7H4 (RnDSystems, 6576-B7) (human, UniProt Q7Z7D3 29-258, limits assumed); test: as above
T3 construct: Bought protein; His tag implied by anti-His detection
T3 sequence (looked up): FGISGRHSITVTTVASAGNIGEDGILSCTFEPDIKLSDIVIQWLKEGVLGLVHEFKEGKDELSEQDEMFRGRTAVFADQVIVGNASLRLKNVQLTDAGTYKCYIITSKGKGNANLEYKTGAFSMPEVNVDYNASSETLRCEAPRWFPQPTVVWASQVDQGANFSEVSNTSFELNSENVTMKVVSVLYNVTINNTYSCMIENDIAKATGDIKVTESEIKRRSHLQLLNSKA
Experimental: as §1

[4] = target: T4, TPP-3760, B7H3 long, human (R&D Systems 2318-B3/CF) (human, UniProt Q5ZPR3 27-461); test: as above
T4 construct: Bought protein; also called B7H3 (RnDSystems, 2318-B3-050/CF); human B7H3
T4 sequence: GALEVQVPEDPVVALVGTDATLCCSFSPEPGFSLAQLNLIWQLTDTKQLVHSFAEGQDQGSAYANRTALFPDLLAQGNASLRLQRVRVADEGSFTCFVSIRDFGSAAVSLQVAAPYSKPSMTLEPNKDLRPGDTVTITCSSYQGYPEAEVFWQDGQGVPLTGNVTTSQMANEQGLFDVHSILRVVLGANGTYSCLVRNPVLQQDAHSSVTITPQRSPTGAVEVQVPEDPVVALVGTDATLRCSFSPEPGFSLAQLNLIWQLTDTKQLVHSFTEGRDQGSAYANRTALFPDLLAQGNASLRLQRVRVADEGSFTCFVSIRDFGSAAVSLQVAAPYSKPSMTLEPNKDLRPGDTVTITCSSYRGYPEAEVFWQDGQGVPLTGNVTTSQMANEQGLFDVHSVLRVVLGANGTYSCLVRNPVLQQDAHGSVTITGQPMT
Experimental: as §1

[5] = target: T1, human B7H3 on cancer cell lines; test: flow cytometry on A498 cells, dose response from 10 ug/mL (1:5 dilution), FITC secondary antibody
Experimental: A dose response curve (1:5 dilution) was generated. Following incubation, 200 μL of ice-cold FACS buffer were pipetted in and the cell suspension was centrifuged at 4° C., 400 g for 4 min. The cell pellet was washed with 300 μL of ice-cold FACS buffer prior to resuspending the pellet obtained in 100 μL of FACS buffer and again incubating for 30 min on ice with secondary antibody (monoclonal anti-kappa light chains FITC antibody, Sigma, No. SAB4700605) in a 1:10 dilution. Subsequently, the cells were washed with ice-cold FACS buffer and adjusted to a cell concentration of 0.5×10⁶ cells/mL before carrying out the flow cytometry using a Guava flow cytometer (Millipore). Propidium iodide (final concentration 1 μg/mL) was used for the live staining. With the aid of the background-corrected geometric mean fluorescence values, the IC50 value of the antibody to be investigated was determined.

| Molecule | NCI-H292 CTG (IC50 M) [1] | U251 CTG (IC50 M) [1] | Quotient signal (B7)/signal (buffer) [2] | Quotient signal (B7)/signal (buffer) [3] | Quotient signal (B7)/signal (buffer) [4] | EC50 [5] |
| --- | --- | --- | --- | --- | --- | --- |
| 208-isotype control (antibody) | 137 nM | 77.6 nM |  |  |  |  |
| B1 |  |  | < 1.5 | < 1.5 | 116 | 0.661 nM |
| B2 |  |  | < 1.5 | < 1.5 | 118 | 1.23 nM |
| B3 |  |  | < 1.5 | < 1.5 | 109 | 0.847 nM |
